Tests used:
Assay in all cases: two-hybrid
[1] = target: chimeric protein SUMO-Tpz1(243-420) (fission yeast (Schizosaccharomyces pombe)) (UniProt O14246)
[2] = target: Tpz1 (fission yeast (Schizosaccharomyces pombe)) (UniProt O14246)
[3] = target: SUMO (small ubiquitin-like modifier, encoded by pmt3) (fission yeast (Schizosaccharomyces pombe)) (UniProt O13351)
UniProt O13351, sequence (O13351 whole entry): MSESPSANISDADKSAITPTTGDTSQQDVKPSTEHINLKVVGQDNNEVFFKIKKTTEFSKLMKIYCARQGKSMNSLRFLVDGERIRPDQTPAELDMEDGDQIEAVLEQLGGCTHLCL

UniProt O14246, sequence (O14246 whole entry): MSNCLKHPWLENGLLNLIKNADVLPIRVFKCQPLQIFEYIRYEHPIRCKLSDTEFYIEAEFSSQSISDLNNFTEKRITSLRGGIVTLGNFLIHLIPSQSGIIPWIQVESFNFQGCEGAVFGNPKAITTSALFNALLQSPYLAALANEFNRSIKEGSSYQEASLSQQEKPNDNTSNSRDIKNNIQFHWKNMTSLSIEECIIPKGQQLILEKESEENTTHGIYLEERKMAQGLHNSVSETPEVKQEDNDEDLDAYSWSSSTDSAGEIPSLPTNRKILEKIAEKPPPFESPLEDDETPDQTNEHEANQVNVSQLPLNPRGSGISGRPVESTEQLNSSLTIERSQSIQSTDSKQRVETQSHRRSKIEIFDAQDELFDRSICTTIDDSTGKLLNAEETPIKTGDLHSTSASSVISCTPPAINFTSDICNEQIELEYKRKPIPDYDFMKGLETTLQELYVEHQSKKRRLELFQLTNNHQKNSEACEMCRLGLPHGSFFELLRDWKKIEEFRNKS

Q: How did the β-galactosidase activity (two-hybrid) (β-galactosidase U) [1] turn out when “Ten1Stn1 fusion protein (Ten1, Gly15 linker, Stn1)” was run?
A: The β-galactosidase activity (two-hybrid) (β-galactosidase U) was 50.

Q: And the β-galactosidase activity (two-hybrid) (β-galactosidase U) [2]?
A: Its β-galactosidase activity (two-hybrid) (β-galactosidase U) is 7.

Q: And the β-galactosidase activity (two-hybrid) (β-galactosidase U) [3]?
A: The β-galactosidase activity (two-hybrid) (β-galactosidase U) was 50.
